Two substances from patent US10414821 can be followed below.

For assay [1], the target named is PD-1 (UniProt Q15116). Kind of assay: ELISA.
Target sequence in this assay (Q15116 25-170): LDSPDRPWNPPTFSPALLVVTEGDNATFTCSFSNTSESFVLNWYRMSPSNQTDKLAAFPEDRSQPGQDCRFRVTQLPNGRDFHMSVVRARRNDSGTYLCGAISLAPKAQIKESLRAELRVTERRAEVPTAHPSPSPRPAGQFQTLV
Assay [2] addresses PD-1 (UniProt Q15116). Kind of assay: blocking ELISA (PD-1/PD-L1).
Target sequence in this assay (Q15116 25-167): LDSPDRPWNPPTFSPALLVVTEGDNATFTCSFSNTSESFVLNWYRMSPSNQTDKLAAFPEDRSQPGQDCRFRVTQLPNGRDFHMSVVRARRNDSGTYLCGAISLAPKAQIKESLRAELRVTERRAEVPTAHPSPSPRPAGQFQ

Turning to MK3475, the EC50 – broadly, the concentration giving half of the maximal effect – with PD-1 [1] amounted to 80 pM. On to MK-3475, for which the IC50 (usually the concentration needed to halve the response being measured) with PD-1 [2] was found to be 603 pM.
